Laboratory results: patent CN115975019A (INST PATHOGEN BIOLOGY CAMS, dated 2023)

B1: A46抗体 (antibody, V domains shown)
VH: EVQLLESGGGLIQPGGSLRLSCAVSEFIVSRNYMSWVRQAPGKGLEWVSVLYPGGSTFYADSVKGRFTISRDESTNTLFLQMNTLRVEDTAVYYCARDFGDFYFDFWGQGTLVTVSS
VL: EIVLTQSPGTLSLSPGQRAALSCRASQSVSTYLAWYQQKPGQAPRLLIHDASSRASGVPDRFSGTGSGTDFTLTITRLEPEDFAVYYCQQYGTSPRTFGQGTKLEIK
notes: also called 抗体A46
B2: A70抗体 (antibody, V domains shown)
VH: QITLKESGPTLVKPTQTLTLTCTFSGFSLDTPGVAIGWIRQPPGRALEWLGLIYWDGDERYNPSLTSRVTLTKDTSKNQVVLTMTNVDSVDTGTYFCGHKTIPTIFGVWGQGAPVTVSS
VL: QSALTQPASVSGSPGQSITISCAATSGDFGVFNYVSWYQQHPGKAPKLIIFEVSSRPSGVSNRFSGSKSGNTASLTVSGLQAEDEAVYHCSSYSTSSVVFGGGTKLTVL
notes: also called 抗体A70

Biological target: T1, SARS-CoV-2 刺突ECD蛋白 (Sinobiological) (SARS-CoV-2, UniProt P0DTC2 14-1213)
T1 construct: extracellular domain; also called Spike ECD蛋白
Assay: ELISA, spike ECD coated 50 ng/well, antibody titrated

Binder	EC50
B1	0.0261 µg/mL
B2	0.0351 µg/mL
